B1: RVFV MP12 N protein delN1-14, N-terminal 6His-tag (p14-N) (domain or fragment)
chain: AVDRNEIEQWVREFAYQGFDARRVIELLKQYGGADWEKDAKKMIVLALTRGNKPRRMMMKMSKEGKATVEALINKYKLKEGNPSRDELTLSRVAAALAGWTCQALVVLSEWLPVTGTTMDGLSPAYPRHMMHPSFAGMVDPSLPGDYLRAILDAHSLYLLQFSRVINPNLRGRTKEEVAATFTQPMNAAVNSNFISHEKRREFLKAFGLVDSNGKPSAAVMAAAQAYKTAA
B2: RVFV MP12 nucleocapsid protein (N), wild type, N-terminal 6His-tag (p14-N) (natural protein)
chain: MDNYQELRVQFAAQAVDRNEIEQWVREFAYQGFDARRVIELLKQYGGADWEKDAKKMIVLALTRGNKPRRMMMKMSKEGKATVEALINKYKLKEGNPSRDELTLSRVAAALAGWTCQALVVLSEWLPVTGTTMDGLSPAYPRHMMHPSFAGMVDPSLPGDYLRAILDAHSLYLLQFSRVINPNLRGRTKEEVAATFTQPMNAAVNSNFISHEKRREFLKAFGLVDSNGKPSAAVMAAAQAYKTAA

Target: the molecule itself
Experiment: cross-linking

Row | Protein | binding result
1 | B1 | binds
2 | B2 | binds
